In article PMC10516644:

Biological target: MSL2-FLAG (Drosophila) (UniProt P50534)
Experiment: co-IP

Chain of UniProt P50534 (P50534 whole entry): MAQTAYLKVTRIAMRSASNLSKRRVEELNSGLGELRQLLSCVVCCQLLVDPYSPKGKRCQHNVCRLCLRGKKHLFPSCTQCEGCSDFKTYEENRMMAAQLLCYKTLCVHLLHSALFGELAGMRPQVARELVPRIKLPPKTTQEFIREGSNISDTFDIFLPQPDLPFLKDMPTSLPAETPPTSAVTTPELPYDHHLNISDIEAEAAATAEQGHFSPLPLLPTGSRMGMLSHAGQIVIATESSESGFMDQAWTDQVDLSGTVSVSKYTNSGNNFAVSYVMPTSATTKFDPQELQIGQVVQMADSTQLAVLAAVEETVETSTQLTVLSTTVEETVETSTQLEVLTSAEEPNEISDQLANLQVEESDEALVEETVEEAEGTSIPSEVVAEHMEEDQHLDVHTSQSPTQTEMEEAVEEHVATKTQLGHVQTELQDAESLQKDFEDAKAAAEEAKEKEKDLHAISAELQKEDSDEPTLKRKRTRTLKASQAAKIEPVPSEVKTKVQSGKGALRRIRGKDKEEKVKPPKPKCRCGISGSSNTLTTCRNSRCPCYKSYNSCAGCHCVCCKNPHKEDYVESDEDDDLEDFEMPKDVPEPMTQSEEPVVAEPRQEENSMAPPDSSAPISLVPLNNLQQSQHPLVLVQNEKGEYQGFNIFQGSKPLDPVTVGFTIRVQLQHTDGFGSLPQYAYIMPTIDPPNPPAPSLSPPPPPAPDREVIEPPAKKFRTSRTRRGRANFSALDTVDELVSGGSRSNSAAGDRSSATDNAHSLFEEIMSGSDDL

With “CLAMP-ΔZF1-FLAG (from UniProt Q9V9N4 1-561) (natural protein)” the percent co-immunoprecipitated (bound fraction normalised to input) was under 1%.
